The nature of the series: label from the status in PepcDB records.

Here are results for 24 sequences from a protein production outcome set (Wang et al. 2014).

With “MFSAKKLSPADKLKNISSMLEEIVEDTTVPRNIRAAADNAKNALHNEEQELIVRSATAIQYLDDISEDPNMPIHTRTQIWGIVSELETIKN”, the protein production entry is recorded as “not failed”.

Consider “MFSIIWMLFTPLLLLCGIAGGIFLIVTGIKYRKLLVGLMGLLSLSFVTLPFVLLSVGIHIDTIFPIPTALYWTLFSLTGLLAGVSGVQAKIKSIRNMGFIIFTIGILGVIFWELMSVGDSFYI”, for which the protein production result is “failed”.

As for “MFSILLPTWNNLALLKLCVQSIRAHSAHDHQIIVHVNDGSDGTLAWVREQGLDHTHSPGNVGICLAVNESAMLARHDYIVYLNDDMVCCPGWDTALLRRLDTLDTDLFMLSGTMIEPVDTGNPCVVVGNYGRDADTFDAARLLADVPRLARGDWLGATWPPTLVHRRWWFKLGGYSSELTPGMSSDNDFSMKLWHAGCRIFLGAGDSLVYHFQCKSTGKVKKNDGRRQFLNKWGLSQSTFDKYFLRRGTPAGADWRLPEPELTSALRWDLRRNDLTRRLRPGVPVLLEHHHHHH”, the protein production entry is “not failed”.

Take “MFSIQQPLLVFSDLDGTLLDSHSYDWQPAAPWLTRLREANVPVILCSSKTSAEMLYLQKTLGLQGLPLIAENGAVIQLAEQWQEIDGFPRIISGISHGEISLVLNTLREKEHFKFTTFDDVDDATIAEWTGLSRSQAALTQLHEASVTLIWRDSDERMAQFTARLNELGLQFMQGARFWHVLDASAGKDQAANWIIATYQQLSGKRPTTLGLGDGPNDAPLLEVMDYAVIVKGLNREGVHLHDEDPARVWRTQREGPEGWREGLDHFFSAR”: the protein production result is listed as “not failed”.

As for “MFSRVPQPLAFAEALLAQFGALSRETDITALLGGFARAVGELSGCELSQLYLLDQTHTALTLNAECRDGLLQALEPSSLPADYTGEQLLQFALCQNRVVSLVDLPSRLHETGFLPAGEQPWLSLLCVPLVSPEKTVEGMVVCATRRPLDLQGFAHPLGQLGSFVLAQLHLLQRLSQPSGE”, the protein production entry was “not failed”.

For “MFSVNNTHSSVSCSPSINSNSTSNEHYLRILTEWEKNSSPGEERGIAFNRLSQCFQNQEAVLNLSDLNLTSLPELPKHISALIVENNKLTSLPKLPAFLKELNADNNRLSVIPELPESLTTLSVRSNQLENLPVLPNHLTSLFVENNRLYNLPALPEKLKFLHVYYNRLTTLPDLPDKLEILCAQRNNLVTFPQFSDRNNIRQKEYYFHFNQITTLPESFSQLDSSYRINISGNPLSTRVLQSLQRLTSSPDYHGPQIYFSMSDGQQNTLHRPLADAVTAWFPENKQSDVSQIWHAFEHEEHANTFSAFLDRLSDTVSARNTSGFREQVAAWLEKLSASAELRQQSFAVAADATESCEDRVALTWNNLRKTLLVHQASEGLFDNDTGALLSLGREMFRLEILEDIARDKVRTLHFVDEIEVYLAFQTMLAEKLQLSTAVKEMRFYGVSGVTANDLRTAEAMVRSREENEFTDWFSLWGPWHAVLKRTEADRWAQAEEQKYEMLENEYSQRVADRLKASGLSGDADAEREAGAQVMRETEQQIYRQLTDEVLALRLSENGSRLHHS”, the protein production result is on record as “not failed”.

For the sequence “MFTGFNWQQMISAFIVLFAVIDIIGSIPIIINLKEKGKDVNATKATVISFALLIGFFYAGDMMLKLFHVDIESFAVAGAFVIFLMSLEMILDIEIFKNQGPIKEATLVPLVFPLLAGAGAFTTLLSLRAEYASVNIIIALILNMLWVYFVVSMTGRVERFLGKGGIYIIRKFFGIILLAISVRLFTANITLLIEALHKS”, the protein production entry was “failed”.

With “MFTINTKSQLPIYEQIVQKIKEQVVKGILQEGEKILSIREFASRIGVNPNTVSKAYQELERQEVIVTVKGKGTFIADQTEKNSSPKKLAETKIKLKEIILDLVYLGINVEEIHKLSVEYSQDIIGGDKI”, the protein production result is reported as “failed”.

In the case of “MFTLFAIQFFTTAAAVAFLLTELMGGFMLLFDWKNSGQKIMTYVAPIWEVTGTFLAMFVVETDATFAGILIPAAFAFAALLLIFLILFIVRNVAIILGEFAGSRKIFTDRQLYYIYVIATLLISVVFLAFSSAIISGNGVKIDIAGNPVDSLLSVSNAEISFNLASWLAGPGDILFVVSAALIAFGLSPVFYDVDRFSTYGVISSVIGFILGIVSFVQMGVHISPIIIIPAIIIIGVPILYRIGLAKKILTNKALFIVLLIVSIYSLYFTVYPSAMNGKLPLSQIITTGPMVIGTILTTVVGFTLLAFMLSLYVYVNYRSSRNQMTTLPK”, the protein production result is reported as “failed”.

Regarding “MFVGVDHAGRDWSWKEPGSTKACRNFMITLFAEWALPATTGQASGRRAMARKFMVPALAVLAFAIAAPAFAQVPANIAKAVADPSRPAAETARDAARRPGEILAMAELKPGDTVVDYIMGGGYFTRIISGAVGPQGVVYAYQPAEFIRFAARYGESLKAVTAALANSKPLDGPITALDLPDNVDAVITVQNYHDMHLKPFPTDTAAKANAEIFKSLKPGGVFLVIDHSAIAGSGITAADTLHRIDIAAVKQEVEAAGFKLEAESGLLADPADARTINVFDPAIRGKTDQFILKFRKPK”, the protein production result is recorded as “failed”.

In the case of “MFVHLSVELMQHLSAAALAFTVVTYVVLDGTDLGVGMLFAANRSDADRHLMAYSILPVWDGNETWLVLGGGSLLAMFPSAYAIFLNATYVPLVVMLLALICRGVALEYRDQLGTDRRRRVLDVVFMVASLLATFCQGVVAGTYLAGVAHRAGQYAGNGREWLQPFPLFCGVALVVGYLLLGACWLVWRSEGQLQQRARHQARVLGIVLGALLTLGVVWLARLTPIYAQRLGDAHISVPLGTSVLGLMVAMYLLMRSRHAFLPLFAVLGVVVATYAGVLAIVYPMVLPPDITLAQAASPPASQGVMLLAFAVLVPCTLAYSSYGFYVFRGKVKPRGHAAE”, the protein production result is recorded as “failed”.

For the sequence “MFVNSNGYNLGVREDEVVVNDVDLPPWAKKPEDFVRINRMALESEFVSCQLHQWIDLIFGYKQRGPEAVRALNVFHYLTYEGSVNLDSITDPVLREIPEAYFIRDPHTFLLTKDFIKAMEAQIQNFGQTPSQLLIEPHPPRSSAMHLCFLPQSPLMFKDQMQQDVIMVLKFPSNSPVTHVAANTLPHLTIPAVVTVTCSRLFAVNRWHNTVGLRGAPGYSLDQAHHLPIEMDPLIANNSGVNKRQITDLVDQSIQINAHCFVVTADNRYILICGFWDKSFRVYSTETGKLTQIVFGHWDVVTCLARSESYIGGDCYIVSGSRDATLLLWYWSGRHHIIGDNPNSSDYPAPRAVLTGHDHEVVCVSVCAELGLVISGAKEGPCLVHTITGDLLRALEGPENCLFPRLISVSSEGHCIIYYERGRFSNFSINGKLLAQMEINDSTRAILLSSDGQNLVTGGDNGVVEVWQACDFKQLYIYPGCDAGIRAMDLSHDQRTLITGMASGSIVAFNIDFNRWHYEHQNRY”, the protein production entry is on record as “failed”.

With “MFVTLQTVQESEKEILRNLYALYLHDLSTFTSNITIGANGFFEYEDLHMFWVNDGITPYFIKSDNEIVGFLLLLERPFLKKENDFGINDIFILNQYKGKGIGKQVIESLLKEKRGQYFVIELVKNVPAVSFWKKVYRELNIEFDEKIQLIDDEECLVQTFEI”, the protein production result was “failed”.

Regarding “MFYFMTLSFIIMPALGCFLIGLVLAKSDRWTFSWILSLIGLVAFISSFWHIERADLWFMLSYSFGPFLMGFGFTWDLSNKRRMQLLLLGLFFLIFFMILYYLIVRILNTAVV”, the protein production entry was “failed”.

As to “MFYILNNVLKNIKTLDNVKSKFFLKDSFLKNKLKANNLDDNLSSHIFFNEIFVSLRDDEKKEEHKKVLLFNKVRNDKKHRKRAFQKRGYWKKMHYFIRKNNMMSYAFKVQNIDYEKIKKLKRGEVYSN”, the protein production entry is “failed”.

Regarding “MGAVTDDEVIRKRLLIDGDGAGDDRRINLLVKSFIKWCNSGSQEEGYSQYQRMLSTLSQCEFSMGKTLLVYDMNLREMENYEKIYKEIECSIAGAHEKIAECKKQILQAKRIRKNRQEYDALAKVIQHHPDRHETLKELEALGKELEHLSHIKESVEDKLELRRKQFHVLLSTIHELQQTLENDEKLSEVEEAQEASMETDPKP”, the protein production result is reported as “failed”.

As for “MGCGFSRQHVVKTNVSSFDRELLDLKIQRDSLQQYEQRLSDSLKNYIKLARRLVAENQRQQALVVLQVKHALQKSIEKAQNMRFNLEQVLSEIELKQIETDYVLKLRTGTKLLQSIQKTLSIEEIEHLLEETKEAIEFQNKVTEVLGSFSLMEIDESCEEELEQLETAMFPPVPKRLEKTMTPQVTENMQVKSETAKEYSKQESILLPS”, the protein production result is “not failed”.

With “MGCVRDLTQRGMRQGAKPVRYFGERTDVSDLLAHTLQTVADILGPHGPATKAAEHSYTPNDYSIHFFLQLAVILLACRVTGWFGKKFLAQPQVVGEMIAGVVLGPSLLGLLFPDFQLSLFPKETRNILYVGAQLGVGLYMFLVGASFQAGHFKTKARSAMSVSFAGIAAPFAIAVIITPFLLKVPGLFAPTITPGAATLFMGACIALTAFPMLARIINERGLQKTSLGTLSLTAGAFDDAVSWCVLAVVLAMFGGGPGVAVLAIGGGLLWVLFVLTLGPKILAPLGRMVEREGELSAHALALVILAFCVSAFLMDAVGIHAIFGGFIMGVVMPRGLLTQELKKKVEPLVVVLLLPMFFTYSGLNTRLDMVNSLDLLLIALGILACSILAKWGACYVAARATGEDHATAMGIGALMNSRGLMELIIINIGLQKGIIGPTLFAMLVLMAIVTTMMASPLFEIVYGKKARERGELDAVPDAKRA”, the protein production entry is “failed”.

“MGCYHPLSGTDGTLMRHTLPIAPQFYVTAPQPCPYLAGRMERKLFTALQGEGAERLNNALSQQGFRRSQNVLYRPSCADCAACLSARIDVSAFRASRSQKRAMRRNAHLTRRATSPWATDEQYELFRRYLDSRHADGGMADMDVFEFAAMIEETPIRSRVIEYAHRDTRALIGVSLTDVLDDGLSMVYSFYDPDLHRDSLGTHMILDHIAIAREAGLPYVYLGYWVPGSPKMGYKSRFSGLEIYLGGRWQAMTDPEAHDAIRHPLSTDPIAEQVANIQLPDRWPTGD”: the protein production entry is on record as “failed”.

With “MGCYHPLSGTDGTLMRHTLPIAPQFYVTAPQPCPYLAGRMERKLFTALQGEGAERLNNALSQQGFRRSQNVLYRPSCADCAACLSARIDVSAFRASRSQKRAMRRNAHLTRRATSPWATDEQYELFRRYLDSRHADGGMADMDVFEFAAMIEETPIRSRVIEYAHRDTRALIGVSLTDVLDDGLSMVYSFYDPDLHRDSLGTHMILDHIAIAREAGLPYVYLGYWVPGSPKMGYKSRFSGLEIYLGGRWQAMTDPEAHDAIRHPLSTDPIAEQVANIQLPDRWPTGDLEHHHHHH”, the protein production entry was “failed”.

Turning to “MGDPFLIGGVIIACFVAFNIGGATTGPAFGPAVGANVLSKTTAGALMAVAFFGGAYTIGRRVVDTLGTELVHDPSVFTLEASIIVLFFIGGALLVGNLSGAPASTSMTAVGAIIGLGLASGELNFAVVGEILAWWILSPIIGFWLAVMVGRYGYEALDRRVAIEQSDGPLLAFERVELGRWPVVRLRESPVVRMERISPKLWPALGPNTSWREAVGTAVLVSIGFLMAFSSGTSNIANAIAPLVGSGALAMNPGILIGCGAVAVGALTIARRTMETLGNDITDLPLTAAIVVALLSSLIIIALSALGIPASFVVVATLCIIGLGWGRSTQAVSVAEAVRGDVSPQVSVGALARGDDATVGTVRSQSAPQGASRRTAPVRSDLFDPGTSVRVVLMQNVVPLLATGGSYLTFWLLPVGG”, the protein production entry is “failed”.

For “MGDRVNLEGIVIDIEQTNDQLSFNVTDENESVPVVYDGPMPETMSVGRTVVAKGYYNGSVVEAESLSIRAHEGLEHHHHHH”, the protein production entry is reported as “not failed”.

On to “MGEAAKDQTEEVIQAWYLDNKEEDQKLPHHKDPKEFVSLDKLAELGVLCWRLDADNYETDEELKRIRESRGYSYMDLCEVCPEKLPNYEEKVKMFFEEHLHIDEEIRYCLAGSGYFDVRDLNDIWIRVWVKKGGLIVFPAGIYHRFTVDSDNYMKAMRLFVGGPVWTAYNRPHDHLPARKAYMKKFLKVIGDRNIDASA”, for which the protein production result is listed as “failed”.

Take “MGEAATKSDRQQNQTRLWLNILRLHGLVFGDLNRQLLDETGLSLAKFDAMAQLARNPDGLSMGKLSGALKVTNGNVSGLVNRLIKDGMVVKAMSADDRRSFSAKLTDAGLTTFKQASEAHNRILAELLRAVSDQDMVEASAALRGILESMQTGASLD”: the protein production entry was “not failed”.
